Measured values published in publication PMC8849478, “Scalable manufacturing platform for the production of methemoglobin as a non-oxygen carrying control material in studies of cell-free hemoglobin solutions” (PLoS ONE, 2022).

B1: bovine hemoglobin (complex)
chain 1: not shown
chain 2: not shown
notes: hemoglobin alpha chain, bovine, from whole bovine blood; hemoglobin beta chain, bovine, from whole bovine blood; alpha2beta2 tetramer with ferrous heme (HbFe2+); in equilibrium with alpha-beta dimers; also called bHb; unmodified bHb; source: purified from bovine red blood cells (lysis, tangential flow filtration); copies: 2 + 2
B2: bovine methemoglobin (complex)
chain 1: not shown
chain 2: not shown
notes: hemoglobin alpha chain, bovine, from whole bovine blood; hemoglobin beta chain, bovine, from whole bovine blood; same chains as m1; the heme iron is oxidised to the ferric state (HbFe3+); purity 99.7 ± 0.2%; also called metbHb; bovine metHb; copies: 2 + 2

Biological target: the molecule itself
Assay: SEC; tetramer to dimers; SEC-HPLC of samples at 1.25, 2.5, 5, 10 and 20 μM (heme basis) after incubation in 0.1 M PBS pH 7.4 at 4°C for one week; fraction of tetramers by deconvolution, Kd from the intercept of the linearised plot (Eq 3)

Row | Protein | Kd [nM]
1 | B1 | 500
2 | B2 | 550
